According to patent publication US20150203577A1 (Chugai, published 2015):

Legend:
mouse FcγRII = target: T1, mouse FcγRII (mouse, UniProt P08101 30-210); assay: SPR Biacore T200, KD ratio
T1 construct: also called mFcγRII; mFcgRII
T1 sequence: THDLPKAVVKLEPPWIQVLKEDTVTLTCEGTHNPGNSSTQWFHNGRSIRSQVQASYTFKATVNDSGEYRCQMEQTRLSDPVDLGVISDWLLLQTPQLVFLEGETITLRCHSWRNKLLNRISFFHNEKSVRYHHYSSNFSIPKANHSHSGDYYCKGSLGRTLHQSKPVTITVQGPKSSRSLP
Source text: (§1) The antibody H chain variable region used was the variable region H237 (SEQ ID NO: 1) of the H chain VH3-IgG1 of the anti-IL-6 receptor antibody Fv4-IgG1 described in WO2009/125825. The antibody L chain commonly used was the L chain MRAL-k0 (SEQ ID NO: 2) of the anti-IL-6 receptor antibody tocilizumab. […] The resulting variant group was designated as MB110 variants. These variants were expressed and purified by the method of Reference Example 1 and evaluated for their binding to mFcγRII and mFcγRIII by the method of Reference Example 2 using Biacore T200.
(§2) Each altered antibody was analyzed for its interaction with each Fcγ receptor prepared above using Biacore T100 (GE Healthcare Japan Corp.), Biacore T200 (GE Healthcare Japan Corp.), Biacore A100, or Biacore 4000. The running buffer used was HBS-EP+ (GE Healthcare Japan Corp.). The assay temperature was set to 25° C. The sensor chips used were chips prepared by immobilizing Protein L (ACTIGEN or BioVision) onto Series S Sensor Chip CM5 (GE Healthcare Japan Corp.) or Series S Sensor Chip CM4 (GE Healthcare Japan Corp.) by the amine coupling method.
(§3) In order to calculate the KD value of each altered antibody for FcγR, kinetic analysis was conducted according to the following method: first, the antibody of interest was captured onto any of these chips and allowed to interact with mFcγR diluted with a running buffer. For the obtained sensorgram, the assay results were globally fit into the 1:1 Langmuir binding model using Biacore Evaluation Software to calculate an association rate constant ka (L/mol/s) and a dissociation rate constant kd (1/s). From these values, the dissociation constant KD (mol/L) was calculated.

mouse FcγRIII = target: T2, mouse FcγRIII (mouse, UniProt P08508 31-215); assay: SPR Biacore T200, KD ratio
T2 construct: also called mFcγRIII; mFcgRIII
T2 chain: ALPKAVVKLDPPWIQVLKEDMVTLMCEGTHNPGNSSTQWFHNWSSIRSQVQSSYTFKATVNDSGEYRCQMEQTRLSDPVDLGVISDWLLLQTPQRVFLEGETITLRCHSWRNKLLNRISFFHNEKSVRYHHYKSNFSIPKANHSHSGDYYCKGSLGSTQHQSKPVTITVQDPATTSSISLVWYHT
Source text: as §1, §2, §3

B1: H237-MB290/MRAL-k0 (antibody, mouse IgG1, kappa)
heavy: QVQLQESGPGLVKPSETLSLTCAVSGHSISHDHAWSWVRQPPGEGLEWIGFISYSGITNYNPSLQGRVTISRDNSKNTLYLQMNSLRAEDTAVYYCARSLARTTAMDYWGEGTLVTVSSAKTTPPSVYPLAPGSAAQTNSMVTLGCLVKGYFPEPVTVTWNSGSLSSGVHTFPAVLQSDLYTLSSSVTVPSSTWPSETVTCNVAHPASSTKVDKKIVPRDCGCKPCICTAPEVSDVFIFPPKPKDVLTITLTPKVTCVVVDISKDDPEVQFSWFVDDVEVHTAQTQPREEQFNSTFRSVSELPIMHQDWLNGKEFKCRVNSAAFPAPIEKTISKTKGRPKAPQVYTIPPPKEQMAKDKVSLTCMITDFFPEDITVEWQWNGQPAENYKNTQPIMDTDGSYFVYSKLNVQKSNWEAGNTFTCSVLHEGLHNHHTEKSLSHSPGK
light: not shown
notes: copies: 2 + 2
B1 was tested, and the “Relative mFcγRII-binding activity (MB110 = 1)” value (mouse FcγRII) was 2.16 fold, the “relative mFcγRII-binding activity (mIgG1 = 1)” value (mouse FcγRII) was 26.5 fold and the “Relative mFcγRIII-binding activity (MB110 = 1)” value (mouse FcγRIII) was 1.37 fold. For the same binder, the “relative mFcγRIII-binding activity (mIgG1 = 1)” value (mouse FcγRIII) was 5.5 fold.

B2: H237-MB305/MRAL-k0 (antibody, mouse IgG1, kappa)
heavy: QVQLQESGPGLVKPSETLSLTCAVSGHSISHDHAWSWVRQPPGEGLEWIGFISYSGITNYNPSLQGRVTISRDNSKNTLYLQMNSLRAEDTAVYYCARSLARTTAMDYWGEGTLVTVSSAKTTPPSVYPLAPGSAAQTNSMVTLGCLVKGYFPEPVTVTWNSGSLSSGVHTFPAVLQSDLYTLSSSVTVPSSTWPSETVTCNVAHPASSTKVDKKIVPRDCGCKPCICTAEEVSDVFIFPPKPKDVLTITLTPKVTCVVVDISKDDPEVQFSWFVDDVEVHTAQTQPREEQFNSTFRSVSELPIMHQDWLNGKEFKCRVNSAAFPAPIEKTISKTKGRPKAPQVYTIPPPKEQMAKDKVSLTCMITDFFPEDITVEWQWNGQPAENYKNTQPIMDTDGSYFVYSKLNVQKSNWEAGNTFTCSVLHEGLHNHHTEKSLSHSPGK
light: not shown
notes: copies: 2 + 2
B2 was tested, and the “Relative mFcγRII-binding activity (MB110 = 1)” value (mouse FcγRII) was 2.12 fold, the “relative mFcγRII-binding activity (mIgG1 = 1)” value (mouse FcγRII) was 26 fold and the “Relative mFcγRIII-binding activity (MB110 = 1)” value (mouse FcγRIII) was 0.94 fold. For the same binder, the “relative mFcγRIII-binding activity (mIgG1 = 1)” value (mouse FcγRIII) was 3.8 fold.

B3: MB293 (antibody, mouse IgG1, kappa)
heavy: QVQLQESGPGLVKPSETLSLTCAVSGHSISHDHAWSWVRQPPGEGLEWIGFISYSGITNYNPSLQGRVTISRDNSKNTLYLQMNSLRAEDTAVYYCARSLARTTAMDYWGEGTLVTVSSAKTTPPSVYPLAPGSAAQTNSMVTLGCLVKGYFPEPVTVTWNSGSLSSGVHTFPAVLQSDLYTLSSSVTVPSSTWPSETVTCNVAHPASSTKVDKKIVPRDCGCKPCICTVPEVEDVFIFPPKPKDVLTITLTPKVTCVVVDISKDDPEVQFSWFVDDVEVHTAQTQPREEQFNSTFRSVSELPIMHQDWLNGKEFKCRVNSAAFPAPIEKTISKTKGRPKAPQVYTIPPPKEQMAKDKVSLTCMITDFFPEDITVEWQWNGQPAENYKNTQPIMDTDGSYFVYSKLNVQKSNWEAGNTFTCSVLHEGLHNHHTEKSLSHSPGK
light: not shown
notes: copies: 2 + 2
B3 was tested, and the “Relative mFcγRII-binding activity (MB110 = 1)” value (mouse FcγRII) was 3.25 fold, the “relative mFcγRII-binding activity (mIgG1 = 1)” value (mouse FcγRII) was 39.9 fold and the “Relative mFcγRIII-binding activity (MB110 = 1)” value (mouse FcγRIII) was 1.01 fold. For the same binder, the “relative mFcγRIII-binding activity (mIgG1 = 1)” value (mouse FcγRIII) was 4.1 fold.

B4: H237-MB337/MRAL-k0 (antibody, mouse IgG1, kappa)
heavy: QVQLQESGPGLVKPSETLSLTCAVSGHSISHDHAWSWVRQPPGEGLEWIGFISYSGITNYNPSLQGRVTISRDNSKNTLYLQMNSLRAEDTAVYYCARSLARTTAMDYWGEGTLVTVSSAKTTPPSVYPLAPGSAAQTNSMVTLGCLVKGYFPEPVTVTWNSGSLSSGVHTFPAVLQSDLYTLSSSVTVPSSTWPSETVTCNVAHPASSTKVDKKIVPRDCGCKPCICEAPEVEDVFIFPPKPKDVLTITLTPKVTCVVVDISKDDPEVQFSWFVDDVEVHTAQTQPREEQFNSTFRSVSELPIMHQDWLNGKEFKCRVNSAAFPAPIEKTISKTKGRPKAPQVYTIPPPKEQMAKDKVSLTCMITDFFPEDITVEWQWNGQPAENYKNTQPIMDTDGSYFVYSKLNVQKSNWEAGNTFTCSVLHEGLHNHHTEKSLSHSPGK
light: not shown
notes: copies: 2 + 2
In the case of B4, the “Relative mFcγRII-binding activity (MB110 = 1)” value (mouse FcγRII) is reported as 5.98 fold, the “relative mFcγRII-binding activity (mIgG1 = 1)” value (mouse FcγRII) is reported as 73.4 fold and the “Relative mFcγRIII-binding activity (MB110 = 1)” value (mouse FcγRIII) is reported as 1.15 fold. For the same binder, the “relative mFcγRIII-binding activity (mIgG1 = 1)” value (mouse FcγRIII) was 4.6 fold.

B5: MB289 (antibody, mouse IgG1, kappa)
heavy: QVQLQESGPGLVKPSETLSLTCAVSGHSISHDHAWSWVRQPPGEGLEWIGFISYSGITNYNPSLQGRVTISRDNSKNTLYLQMNSLRAEDTAVYYCARSLARTTAMDYWGEGTLVTVSSAKTTPPSVYPLAPGSAAQTNSMVTLGCLVKGYFPEPVTVTWNSGSLSSGVHTFPAVLQSDLYTLSSSVTVPSSTWPSETVTCNVAHPASSTKVDKKIVPRDCGCKPCICEVPEVSDVFIFPPKPKDVLTITLTPKVTCVVVDISKDDPEVQFSWFVDDVEVHTAQTQPREEQFNSTFRSVSELPIMHQDWLNGKEFKCRVNSAAFPAPIEKTISKTKGRPKAPQVYTIPPPKEQMAKDKVSLTCMITDFFPEDITVEWQWNGQPAENYKNTQPIMDTDGSYFVYSKLNVQKSNWEAGNTFTCSVLHEGLHNHHTEKSLSHSPGK
light: not shown
notes: copies: 2 + 2
With B5 the “Relative mFcγRII-binding activity (MB110 = 1)” value (mouse FcγRII) was 3.57 fold, the “relative mFcγRII-binding activity (mIgG1 = 1)” value (mouse FcγRII) was 43.8 fold and the “Relative mFcγRIII-binding activity (MB110 = 1)” value (mouse FcγRIII) was 1.23 fold. For the same binder, the “relative mFcγRIII-binding activity (mIgG1 = 1)” value (mouse FcγRIII) was 4.9 fold.

B6: MB292 (antibody, mouse IgG1, kappa)
heavy: QVQLQESGPGLVKPSETLSLTCAVSGHSISHDHAWSWVRQPPGEGLEWIGFISYSGITNYNPSLQGRVTISRDNSKNTLYLQMNSLRAEDTAVYYCARSLARTTAMDYWGEGTLVTVSSAKTTPPSVYPLAPGSAAQTNSMVTLGCLVKGYFPEPVTVTWNSGSLSSGVHTFPAVLQSDLYTLSSSVTVPSSTWPSETVTCNVAHPASSTKVDKKIVPRDCGCKPCICTVEEVSDVFIFPPKPKDVLTITLTPKVTCVVVDISKDDPEVQFSWFVDDVEVHTAQTQPREEQFNSTFRSVSELPIMHQDWLNGKEFKCRVNSAAFPAPIEKTISKTKGRPKAPQVYTIPPPKEQMAKDKVSLTCMITDFFPEDITVEWQWNGQPAENYKNTQPIMDTDGSYFVYSKLNVQKSNWEAGNTFTCSVLHEGLHNHHTEKSLSHSPGK
light: not shown
notes: copies: 2 + 2
With B6 the “Relative mFcγRII-binding activity (MB110 = 1)” value (mouse FcγRII) was 2.82 fold, the “relative mFcγRII-binding activity (mIgG1 = 1)” value (mouse FcγRII) was 34.6 fold and the “Relative mFcγRIII-binding activity (MB110 = 1)” value (mouse FcγRIII) was 1.02 fold. The “relative mFcγRIII-binding activity (mIgG1 = 1)” value (mouse FcγRIII) was 4.1 fold.

B7: MB291 (antibody, mouse IgG1, kappa)
heavy: QVQLQESGPGLVKPSETLSLTCAVSGHSISHDHAWSWVRQPPGEGLEWIGFISYSGITNYNPSLQGRVTISRDNSKNTLYLQMNSLRAEDTAVYYCARSLARTTAMDYWGEGTLVTVSSAKTTPPSVYPLAPGSAAQTNSMVTLGCLVKGYFPEPVTVTWNSGSLSSGVHTFPAVLQSDLYTLSSSVTVPSSTWPSETVTCNVAHPASSTKVDKKIVPRDCGCKPCICTDPEVSDVFIFPPKPKDVLTITLTPKVTCVVVDISKDDPEVQFSWFVDDVEVHTAQTQPREEQFNSTFRSVSELPIMHQDWLNGKEFKCRVNSAAFPAPIEKTISKTKGRPKAPQVYTIPPPKEQMAKDKVSLTCMITDFFPEDITVEWQWNGQPAENYKNTQPIMDTDGSYFVYSKLNVQKSNWEAGNTFTCSVLHEGLHNHHTEKSLSHSPGK
light: not shown
notes: copies: 2 + 2
For B7, the “Relative mFcγRII-binding activity (MB110 = 1)” value (mouse FcγRII) was 3.47 fold, the “relative mFcγRII-binding activity (mIgG1 = 1)” value (mouse FcγRII) was 42.6 fold and the “Relative mFcγRIII-binding activity (MB110 = 1)” value (mouse FcγRIII) was 1.66 fold. The “relative mFcγRIII-binding activity (mIgG1 = 1)” value (mouse FcγRIII) was 6.7 fold.

B8: H237-MB302/MRAL-k0 (antibody, mouse IgG1, kappa)
heavy: QVQLQESGPGLVKPSETLSLTCAVSGHSISHDHAWSWVRQPPGEGLEWIGFISYSGITNYNPSLQGRVTISRDNSKNTLYLQMNSLRAEDTAVYYCARSLARTTAMDYWGEGTLVTVSSAKTTPPSVYPLAPGSAAQTNSMVTLGCLVKGYFPEPVTVTWNSGSLSSGVHTFPAVLQSDLYTLSSSVTVPSSTWPSETVTCNVAHPASSTKVDKKIVPRDCGCKPCICEVPEVEDVFIFPPKPKDVLTITLTPKVTCVVVDISKDDPEVQFSWFVDDVEVHTAQTQPREEQFNSTFRSVSELPIMHQDWLNGKEFKCRVNSAAFPAPIEKTISKTKGRPKAPQVYTIPPPKEQMAKDKVSLTCMITDFFPEDITVEWQWNGQPAENYKNTQPIMDTDGSYFVYSKLNVQKSNWEAGNTFTCSVLHEGLHNHHTEKSLSHSPGK
light: not shown
notes: copies: 2 + 2
For B8, the “Relative mFcγRII-binding activity (MB110 = 1)” value (mouse FcγRII) was 4.37 fold, the “relative mFcγRII-binding activity (mIgG1 = 1)” value (mouse FcγRII) was 53.7 fold and the “Relative mFcγRIII-binding activity (MB110 = 1)” value (mouse FcγRIII) was 1.11 fold. For the same binder, the “relative mFcγRIII-binding activity (mIgG1 = 1)” value (mouse FcγRIII) was 4.5 fold.
